Here are results for one substance from patent US20210063414A1, “METHODS FOR PREVENTING AND/OR TREATING BONE LOSS CONDITIONS BY MODULATING IRISIN” (Dana-Farber Cancer Institute, Inc., priority 2018, published 2021).

This assay has as its target T1, MLO-Y4 cell surface proteins (Mus musculus, UniProt E9PW83).
T1 construct: endogenous in cells; host or cells: MLO-Y4
T1 sequence (E9PW83 1-1143): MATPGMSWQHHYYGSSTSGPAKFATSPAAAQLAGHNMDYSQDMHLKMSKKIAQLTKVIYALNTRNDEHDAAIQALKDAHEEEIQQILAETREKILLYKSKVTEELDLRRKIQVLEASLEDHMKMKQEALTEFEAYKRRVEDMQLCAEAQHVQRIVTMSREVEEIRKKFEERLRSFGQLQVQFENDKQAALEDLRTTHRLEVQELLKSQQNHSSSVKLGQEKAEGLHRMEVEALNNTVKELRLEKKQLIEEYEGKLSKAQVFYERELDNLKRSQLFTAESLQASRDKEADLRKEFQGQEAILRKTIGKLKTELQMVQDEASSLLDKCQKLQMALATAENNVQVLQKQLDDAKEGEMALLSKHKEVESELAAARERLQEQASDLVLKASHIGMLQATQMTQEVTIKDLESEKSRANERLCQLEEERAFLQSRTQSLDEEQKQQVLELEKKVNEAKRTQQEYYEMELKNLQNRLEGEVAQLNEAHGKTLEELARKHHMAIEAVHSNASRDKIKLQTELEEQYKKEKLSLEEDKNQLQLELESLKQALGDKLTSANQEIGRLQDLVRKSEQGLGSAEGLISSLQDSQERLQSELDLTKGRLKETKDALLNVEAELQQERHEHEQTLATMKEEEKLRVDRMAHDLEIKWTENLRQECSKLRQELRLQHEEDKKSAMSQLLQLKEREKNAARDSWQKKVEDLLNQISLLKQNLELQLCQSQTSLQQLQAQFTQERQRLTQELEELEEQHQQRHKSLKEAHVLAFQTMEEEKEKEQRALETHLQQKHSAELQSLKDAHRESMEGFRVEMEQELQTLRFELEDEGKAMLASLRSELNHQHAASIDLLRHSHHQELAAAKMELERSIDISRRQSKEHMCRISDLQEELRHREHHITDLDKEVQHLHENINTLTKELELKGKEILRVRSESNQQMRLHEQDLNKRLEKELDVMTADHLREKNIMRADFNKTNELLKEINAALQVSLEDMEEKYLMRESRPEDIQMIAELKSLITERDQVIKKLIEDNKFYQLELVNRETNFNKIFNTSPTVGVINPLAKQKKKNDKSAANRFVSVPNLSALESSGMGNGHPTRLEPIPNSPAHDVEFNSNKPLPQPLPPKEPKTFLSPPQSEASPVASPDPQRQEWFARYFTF
Kind of assay: Crosslinking/co-immunoprecipitation/mass spectrometry (TMT quantitative proteomics) to identify irisin receptors. Format: binding. The settings on record: co-precipitated protein Fam184a (E9PW83_MOUSE). In outline:
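Relative protein abundance came from 6-plex TMT MS3 quantitation on an Orbitrap Fusion Lumos, after in-gel trypsin digestion of Coomassie-stained SDS-PAGE lanes. Input was a Ni-NTA pulldown (250 mM imidazole elution) of lysates from murine MLO-Y4 cells. These cells were treated on ice with His-tagged irisin or adipsin (10 nM, 20 min) in serum-free medium, then crosslinked with 1.5 mM DTSSP for 30 min.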

With adipsin, the TMT signal-to-noise ratio is listed as 877.972.
